According to patent US11419948B2, “Functionalized microgels with fibrin binding elements” (Georgia Tech Research Corporation, priority 2013, dated 2022):

Molecular target: T1, fibrinogen (Homo sapiens, UniProt P02671+P02675+P02679)
T1 sequence (P02671 20-629 limits assumed): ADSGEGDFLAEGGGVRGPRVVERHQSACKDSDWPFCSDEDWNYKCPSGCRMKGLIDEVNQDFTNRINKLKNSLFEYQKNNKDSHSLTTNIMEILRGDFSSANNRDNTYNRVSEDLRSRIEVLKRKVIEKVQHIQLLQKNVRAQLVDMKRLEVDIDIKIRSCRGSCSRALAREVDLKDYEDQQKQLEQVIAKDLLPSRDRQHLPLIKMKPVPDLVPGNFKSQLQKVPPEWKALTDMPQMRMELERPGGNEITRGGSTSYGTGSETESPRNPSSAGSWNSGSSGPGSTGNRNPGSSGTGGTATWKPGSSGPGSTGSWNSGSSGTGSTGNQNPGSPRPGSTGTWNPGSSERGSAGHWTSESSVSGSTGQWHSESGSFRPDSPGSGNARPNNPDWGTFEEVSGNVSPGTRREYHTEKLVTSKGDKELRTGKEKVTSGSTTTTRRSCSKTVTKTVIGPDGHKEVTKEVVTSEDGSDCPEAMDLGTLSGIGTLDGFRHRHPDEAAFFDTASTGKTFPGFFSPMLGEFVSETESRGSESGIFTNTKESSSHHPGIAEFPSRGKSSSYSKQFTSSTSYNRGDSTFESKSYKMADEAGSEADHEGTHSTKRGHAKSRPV
T1 sequence (P02675 31-491): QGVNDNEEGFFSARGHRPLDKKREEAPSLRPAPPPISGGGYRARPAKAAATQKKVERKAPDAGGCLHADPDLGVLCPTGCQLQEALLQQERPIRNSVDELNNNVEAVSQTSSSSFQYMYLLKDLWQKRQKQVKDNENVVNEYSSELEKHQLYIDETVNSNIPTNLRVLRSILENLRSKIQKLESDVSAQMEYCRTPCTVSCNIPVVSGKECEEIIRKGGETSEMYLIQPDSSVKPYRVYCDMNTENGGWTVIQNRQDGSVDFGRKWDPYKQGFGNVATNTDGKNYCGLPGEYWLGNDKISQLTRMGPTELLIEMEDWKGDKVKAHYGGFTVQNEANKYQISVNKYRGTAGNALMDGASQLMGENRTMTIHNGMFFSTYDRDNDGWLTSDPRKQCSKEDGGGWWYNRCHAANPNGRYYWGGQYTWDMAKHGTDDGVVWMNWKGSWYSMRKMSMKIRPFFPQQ
T1 sequence (P02679 27-453): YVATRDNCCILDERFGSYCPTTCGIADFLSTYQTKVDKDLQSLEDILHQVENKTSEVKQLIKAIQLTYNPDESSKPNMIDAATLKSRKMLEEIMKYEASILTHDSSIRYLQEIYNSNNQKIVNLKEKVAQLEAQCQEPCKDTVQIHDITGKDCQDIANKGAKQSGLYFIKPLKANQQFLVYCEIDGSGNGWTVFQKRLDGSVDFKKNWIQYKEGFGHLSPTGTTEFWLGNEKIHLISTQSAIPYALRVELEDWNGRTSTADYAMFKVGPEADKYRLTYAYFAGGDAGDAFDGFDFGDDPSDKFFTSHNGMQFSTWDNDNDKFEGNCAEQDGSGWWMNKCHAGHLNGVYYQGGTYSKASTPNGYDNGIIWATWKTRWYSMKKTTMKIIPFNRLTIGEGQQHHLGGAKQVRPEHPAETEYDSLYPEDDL
Test: SPR on immobilized fibrinogen surface
Format: binding
Protocol: Based on previous SPR protocols developed in the lab^4, a thin fibrin layer was immobilized on the surface of a gold SPR chip via layer-by-layer deposition of fibrinogen-thrombin-fibrinogen^3. SdFvs were flowed across the fibrin surface and the binding interactions were evaluated and recorded. Additionally, antibody fragment binding interactions with a surface of immobilized fibrinogen was used to investigate the specificity to fibrin. All SPR data was examined and analyzed with Scrubber 2 and Clamp XP (Center for Biomolecular Interactions Analysis, University of Utah). Data simulation curves were generated based on a Langmuir 1:1 binding model assuming only a single ligand-analyte interaction.

B1: H6: fibrin-specific human sdFv clone from phage biopanning, SEQ ID NO: 1 (protein)
VHH: QVQLLESGGGLVQPGGSLRLSCAASGDRFTHNDMGWVRQAPGKGLEWVSTIPTTDGSTYYADSVKGRFTISRDNSKSTLYLQMNSLRAEDTAVYYCATGYMWKAPAYVKYWGQGTLVTVSSAAAEQKLISEEDLNSAAHYTDIG
  binding to fibrinogen: negligible binding
